Assay results as given in US20170355763A1 (published 2017).

Target: T1, purified, recombinant human IL-31 fused at the C-terminal with a peptide consisting of the sequence EYMPME … (human, UniProt Q6EBC2 27-164)
T1 construct: also called human IL-31-CEE; rIL31
T1 sequence: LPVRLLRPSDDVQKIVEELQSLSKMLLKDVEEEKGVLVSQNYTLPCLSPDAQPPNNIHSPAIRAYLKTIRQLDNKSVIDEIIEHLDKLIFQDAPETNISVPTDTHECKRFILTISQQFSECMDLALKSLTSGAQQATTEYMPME
Assay: capture ELISA: mAb of supernatant captured on anti-mouse IgG Fc, biotinylated IL-31-CEE
Method: These new supernatants were tested using the cell-based neutralization assay (serial 3-fold dilutions starting with neat supernatant and proceeding to a final 1:243 dilution) as well as a “capture” style ELISA assay similar to that used in the development of the rat anti-murine IL-31 mAbs with the following differences; 1) sheep anti-mouse IgG, Fc specific antibody (Jackson Immunoresearch) (1 ug/mL) as plate coating antibody, 2) plates blocked once with PBS-Tween+1% BSA for 1 hr, 3) a single titration of each supernatant added to wells (serial 3-fold dilutions starting with neat supernatant and proceeding to a final 1:2187 dilution), and 4) addition of biotinylated IL-31-CEE (3:1 molar ratio of biotin:protein), 200 ng/mL. This assay was felt to be more pertinent than the binding of antibody to plate bound IL-31-CEE as it assessed the ability of antibody to bind to IL-31-CEE in solution, a property essential to a good antibody for sandwich style ELISAs. It was in fact observed that a number of the master wells supernatants containing antibody that bound well to plate bound IL-31-CEE poorly recognized this molecule in solution.
To reduce the number of hybridomas going into further subcloning, two new assays were performed with exhausted supernatant from each of the selected first round clones. […]

EC50: 0.0134 µg/mL
B1: mouse anti-human IL-31 mAb 294.144.3.5 (antibody, mouse IgG1, V domains shown)
VL: ENVLTQSPAIMSASPGERVTMTCSASSSVSYMHWYQQKSSNSPKLWIYDTTKLASGVPGRFSGSGSGNSYSLTISSMEAEDVATYFCFQGSEHPLTFGGGTTLEI
VH: QVQLQQSGPELMKPGASVKISCKATGYTFSTYWIEWIKQRPGHGLEWIGEILPGRGTTNYNAKFQGKATFTAETSSNTAYMQLSSLTSEDSAVYYCTTESKLGDDDYWQGTTLTVSS
notes: Mouse IgG1; also called ATCC PTA-6873
